Reference: paper PMC10433963

Columns and labels:
[1] = molecular target: ^H7-SUMOClpC1^FLAG (recombinant ClpC1) (M. smegmatis) (UniProt A0R574)
[2] = molecular target: ^H7-SUMOClpC1^FLAG (recombinant ClpC1) (M. smegmatis) (UniProt A0R574); remark: listed apart in the source

Chain of ^H7-SUMOClpC1^FLAG (recombinant ClpC1) (M. smegmatis) (A0R574 whole entry): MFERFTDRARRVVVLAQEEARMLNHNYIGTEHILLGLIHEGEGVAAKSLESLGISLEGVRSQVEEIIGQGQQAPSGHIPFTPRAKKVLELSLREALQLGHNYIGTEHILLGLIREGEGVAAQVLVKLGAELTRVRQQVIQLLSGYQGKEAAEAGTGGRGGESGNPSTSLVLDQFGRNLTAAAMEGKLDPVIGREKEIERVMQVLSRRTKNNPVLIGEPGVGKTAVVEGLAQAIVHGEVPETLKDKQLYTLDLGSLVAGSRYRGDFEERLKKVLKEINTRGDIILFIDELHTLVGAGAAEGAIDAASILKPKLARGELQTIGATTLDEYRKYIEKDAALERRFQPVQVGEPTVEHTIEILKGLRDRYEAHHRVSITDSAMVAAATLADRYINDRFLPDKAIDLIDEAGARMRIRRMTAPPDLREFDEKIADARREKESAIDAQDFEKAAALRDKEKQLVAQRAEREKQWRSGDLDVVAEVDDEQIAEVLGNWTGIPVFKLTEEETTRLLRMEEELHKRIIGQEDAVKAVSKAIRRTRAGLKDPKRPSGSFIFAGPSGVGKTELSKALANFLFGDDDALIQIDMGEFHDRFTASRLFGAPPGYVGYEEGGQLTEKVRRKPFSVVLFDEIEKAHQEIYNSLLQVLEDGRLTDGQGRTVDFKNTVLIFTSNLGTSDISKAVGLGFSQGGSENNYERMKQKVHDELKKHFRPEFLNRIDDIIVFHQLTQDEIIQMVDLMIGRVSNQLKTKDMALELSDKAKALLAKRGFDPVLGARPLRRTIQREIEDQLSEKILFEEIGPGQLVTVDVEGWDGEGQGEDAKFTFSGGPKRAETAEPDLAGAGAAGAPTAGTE

Substance | Km of degradation by 1 uM ClpC1P1P2, loss of GFP fluorescence, Michaelis-Menten analysis [1] | Km of degradation by ClpC1P1P2, loss of GFP fluorescence, Michaelis-Menten analysis [1] | further results
GFP preceded by the first 13 residues of MSMEI_3879 | – | 19.1 µM | –
GFP^MSMEI_3879 (MSMEI_3879 fused to the C terminus of GFP) | 18.8 µM | – | –
MSMEI_3879 (recombinant) (natural protein) | – | – | degradation of 10 uM MSMEI 3879 by 1 uM ClpC1 and 1 uM ClpP1P2 in vitro, SDS-PAGE densitometry, protein hydrolyzed within 40 min [2]: 75%

Continued, in another order:

Km of degradation by 1 uM ClpC1P1P2, loss of GFP fluorescence, Michaelis-Menten analysis [1] | Km of degradation by ClpC1P1P2, loss of GFP fluorescence, Michaelis-Menten analysis [1] | Substance | further results
2.06 µM | – | ^MSMEI_3879GFP (MSMEI_3879 fused to the N terminus of GFP) | –
– | 5.97 µM | GFP appended with the last 13 residues of MSMEI_3879 | –
